The results in this text go back to patent US20260265403A1 (TJ BIOPHARMA SHANGHAI, published 2026).

T1: human CD24 on cells (human, UniProt P25063 27-59)
T1 chain (looked up): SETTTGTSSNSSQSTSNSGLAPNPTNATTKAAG

B1: 80-F10A6, IgG4, Kappa (antibody, V domains shown)
VH: EVQLQQSGPVLVNPGASVKISCKASGYSFTGYYMNWVKQSPEKSLEWIGEVNPITGDTTYSQNFKAKTTLTVDRSSSTAYMQLKSLTSEDSAVYYCTRRDYGTSLDYWGQGTTLTVSS
VL: DVQITQSPSYLAASPGETITIHCRASKSISRYLAWYQEKPGKINTLLIYAGSTLHLGIPSRFSGSGSGTDFTLTISSLELEDFAMYYCQQHNEYPITFGAGTKLELK
B2: 74-H4C6 (4451), IgG1, Kappa (antibody, V domains shown)
VH: EVQLQQSGPELVKPGASVKISCKASGYDFTGYHMNWVKQSPEKSLEWIGEINPITSDKTFNQKFKSKATLTVDRSSSTAYMYLKSLTSEDSAVYYCARRDYGTSLDYWGQGTTLTVSS
VL: DVQITQSPSYLAASPGETITIYCRASKSISKYLAWYQEKPEKTNRLLIYAGSTLHSGIPSRFRGSGSGKDFTLTVSGLEPEDFAMYYCQQHNEYPITFGAGTKLELK
B3: 45-H1E4, IgG1, Kappa (antibody, V domains shown)
VH: QIQLVQSGPELKKPGETVKISCKASGYTFTTYGMSWMKQAPGKGLKWMGWINTYSGVPAYADDFKGRFAFSLDTSASTAYLQINNLKNEDTATYFCARSGYPWSPHSYSTDYWGQGISVTVSS
VL: DVLLTQTPLSLPVSLGDQASISCKSSQSIVHSNGNTYLEWYLQKPGQSPKRLIYKVSNRFSGVPDRFSGSGSGTDFTLKISRVEAEDLGVYYCFQGSHVPWTFGGGTKLEIK
B4: 66-D1B10, IgG1, Kappa (antibody, V domains shown)
VH: EVRLEESGGGFVQPGGSMKLSCVASGLTFPNHWMNWVRQSPERGLAWVAQIQLKSDNYATRYVESVKGRFTISRDDSESTVYLQMNNLRAEDTGIYYCTTGTDYWGQGTTLTVSS
VL: not shown
B5: 76-F8C6, IgG1, Kappa (antibody, V domains shown)
VH: EVKLEESGGGLVQPGGSMKLSCVASGFTFTNSWMNWVRQSPERGLDWVAQIQLKSDNYATRYVESVKGRFTISRDDSKNSVYLQMNNLRAEDTGIYYCTTGTDYWSQGTTLTVSS
VL: not shown
B6: 65-F3C7, IgG4, Kappa (antibody, V domains shown)
VH: EVRLEESGGGFVQPGGSMKLSCVASGLTFPNHWMNWVRQSLERGLAWVAQIQLKSDNYATRYVESVKGRFTISRDDSKSTVYLQMNNLRPEDTGIYYCTTGTDYWGQGTTLTVSS
VL: not shown
B7: 65-F3C7, IgG1, Kappa (antibody, V domains shown)
VH: EVRLEESGGGFVQPGGSMKLSCVASGLTFPNHWMNWVRQSLERGLAWVAQIQLKSDNYATRYVESVKGRFTISRDDSKSTVYLQMNNLRPEDTGIYYCTTGTDYWGQGTTLTVSS
VL: not shown
B8: 63-C5A5, IgG4, Kappa (antibody, V domains shown)
VH: EVNLEESGGGLVQPGGSMEFSCVASGLTFSDHWMNWVRQSPEKGLEWVAQIQLKSDNYAIRYVESVKGRFSISRDDSKSSVYLQMNNLRAEDSGIYYCTTGTDYWGQGTTLTVSS
VL: not shown
B9: 63-C5A5, IgG1, Kappa (antibody, V domains shown)
VH: EVNLEESGGGLVQPGGSMEFSCVASGLTFSDHWMNWVRQSPEKGLEWVAQIQLKSDNYAIRYVESVKGRFSISRDDSKSSVYLQMNNLRAEDSGIYYCTTGTDYWGQGTTLTVSS
VL: not shown
B10: 59-G9D7, IgG1, Kappa (antibody, V domains shown)
VH: QVQLQQPGADLVKPGASVKLSCKASGYTVTTYWMHWVRQRPGRGLEWIGRIDPNSGETKYSEKFKNKATLTVDRPSSTAYMQLSSLTFEDSAVYFCAIYYYLNNFLFDYWGQGTTLTVSS
VL: ENVLTQSPAIMSASPGEKVTMTCRASSSVSSSYLHWYQKKSGASPKLWIYSTSNLASGVPARFSGSGSGTSYSLTISSVEAEDAATYYCQQYSGYPLTFGAGTKLELK
B11: 62-F7E9, IgG1, Kappa (antibody, V domains shown)
VH: QVQLQQPGAELVKPGASVKLSCKASGYTSTSYWLHWVKQRPGRGLEWIGRIDPNSGETKFNEKFKSQATLTVDKPSSTAYMQLNSLTSEDSAVYYCALYYYGSILFDYWGQGTTLTVSS
VL: ENVLTQSPAIMSASPGEKVTMTCRTSSIISSGFLHWYQQKSGASPKLWIYSTSNLASGVPARFSGSGSGTSYSLTISSVEAEDAATYYCQQYSGHPLTFGAGTKLELK
B12: 69-D5G10, IgG4, Kappa (antibody, V domains shown)
VH: EVKLEESGGGLVQPGGSMKLSCVVSGLTFSNHWMNWVRQSPEKGLEWVAQIQLKSDNYATRFAESVKGRFTISRDDSKSDVYLQMNNLRTEDTGIYYCTTGTDYWGQGTTLTVSS
VL: not shown
B13: 69-D5G10, IgG1, Kappa (antibody, V domains shown)
VH: EVKLEESGGGLVQPGGSMKLSCVVSGLTFSNHWMNWVRQSPEKGLEWVAQIQLKSDNYATRFAESVKGRFTISRDDSKSDVYLQMNNLRTEDTGIYYCTTGTDYWGQGTTLTVSS
VL: not shown

For this test, the target named is T1, human CD24 on cells. As to the kind of experiment: cell-based or functional assay.
As to B1, the “EC50 of Phagocytosis assay, IgG4, Kappa; HEK293-CD24” value (shortened to “EC50 … IgG4, Kappa; HEK293-CD24”) was 0.86 µg/mL; the “EC50 of Phagocytosis assay, IgG4, Kappa; MCF-7” value (“EC50 … IgG4, Kappa; MCF-7” for short) stood at 2.4 µg/mL; the “EC50 of Phagocytosis assay, IgG4, Kappa; NALM6” value (from here on “EC50 … IgG4, Kappa; NALM6”) turned out to be 1.05 µg/mL; the “EC50 of Phagocytosis assay, IgG4, Kappa; OVCAR3” value (from here on “EC50 … IgG4, Kappa; OVCAR3”) was determined as 0.37 µg/mL.

As to B2, the “EC50 of Phagocytosis assay, IgG1, Kappa; HEK293-CD24” value (shortened to “EC50 … IgG1, Kappa; HEK293-CD24”) amounted to 0.05 µg/mL; the “EC50 of Phagocytosis assay, IgG1, Kappa; MCF-7” value (shortened to “EC50 … IgG1, Kappa; MCF-7”) turned out to be 0.28 µg/mL; the “EC50 of Phagocytosis assay, IgG1, Kappa; NALM6” value (“EC50 … IgG1, Kappa; NALM6” for short) came to 0.19 µg/mL; the “EC50 of Phagocytosis assay, IgG1, Kappa; OVCAR3” value (“EC50 … IgG1, Kappa; OVCAR3” below) stood at 0.1 µg/mL.

Consider B3, for which the “EC50 … IgG1, Kappa; HEK293-CD24” value was determined as 0.29 µg/mL; the “EC50 … IgG1, Kappa; MCF-7” value came to 1.02 µg/mL; the “EC50 … IgG1, Kappa; NALM6” value stood at 1.25 µg/mL; the “EC50 … IgG1, Kappa; OVCAR3” value turned out to be 0.59 µg/mL.

With B4, the “EC50 … IgG1, Kappa; HEK293-CD24” value turned out to be 7.46 µg/mL; the “EC50 … IgG1, Kappa; MCF-7” value was 0.84 µg/mL; the “EC50 … IgG1, Kappa; NALM6” value is 2.48 µg/mL; the “EC50 … IgG1, Kappa; OVCAR3” value came out at 0.73 µg/mL.

Regarding B5, the “EC50 … IgG1, Kappa; HEK293-CD24” value came out at 0.09 µg/mL; the “EC50 … IgG1, Kappa; MCF-7” value amounted to 0.47 µg/mL; the “EC50 … IgG1, Kappa; NALM6” value came out at 0.42 µg/mL; the “EC50 … IgG1, Kappa; OVCAR3” value came to 0.17 µg/mL.

For the molecule B6, the “EC50 … IgG4, Kappa; HEK293-CD24” value was determined as 0.09 µg/mL; the “EC50 … IgG4, Kappa; MCF-7” value amounted to 2.25 µg/mL; the “EC50 … IgG4, Kappa; NALM6” value was found to be 6.01 µg/mL; the “EC50 … IgG4, Kappa; OVCAR3” value worked out at 5.74 µg/mL.

With B7, the “EC50 … IgG1, Kappa; HEK293-CD24” value was determined as 0.75 µg/mL; the “EC50 … IgG1, Kappa; MCF-7” value came out at 0.4 µg/mL; the “EC50 … IgG1, Kappa; NALM6” value was 2.01 µg/mL; the “EC50 … IgG1, Kappa; OVCAR3” value amounted to 0.23 µg/mL.

B8: the “EC50 … IgG4, Kappa; HEK293-CD24” value was found to be 0.46 µg/mL; the “EC50 … IgG4, Kappa; MCF-7” value was found to be 24.7 µg/mL; the “EC50 … IgG4, Kappa; NALM6” value stood at 6.58 µg/mL; the “EC50 … IgG4, Kappa; OVCAR3” value amounted to 1.62 µg/mL.

Turning to B9, the “EC50 … IgG1, Kappa; HEK293-CD24” value is 0.4 µg/mL; the “EC50 … IgG1, Kappa; MCF-7” value was determined as 0.74 µg/mL; the “EC50 … IgG1, Kappa; NALM6” value worked out at 0.7 µg/mL; the “EC50 … IgG1, Kappa; OVCAR3” value is 8.48 µg/mL.

As to B10, the “EC50 … IgG1, Kappa; HEK293-CD24” value stood at 4.76 µg/mL; the “EC50 … IgG1, Kappa; MCF-7” value is 2.05 µg/mL; the “EC50 … IgG1, Kappa; NALM6” value is 7.9 µg/mL; the “EC50 … IgG1, Kappa; OVCAR3” value is 0.97 µg/mL.

With B11, the “EC50 … IgG1, Kappa; HEK293-CD24” value is 5.15 µg/mL; the “EC50 … IgG1, Kappa; MCF-7” value came out at 2.08 µg/mL; the “EC50 … IgG1, Kappa; NALM6” value is 8.62 µg/mL; the “EC50 … IgG1, Kappa; OVCAR3” value was determined as 1.63 µg/mL.

Consider B12, for which the “EC50 … IgG4, Kappa; HEK293-CD24” value is 0.37 µg/mL; the “EC50 … IgG4, Kappa; MCF-7” value was found to be 1.02 µg/mL; the “EC50 … IgG4, Kappa; NALM6” value amounted to 0.55 µg/mL; the “EC50 … IgG4, Kappa; OVCAR3” value was determined as 0.51 µg/mL.

Turning to B13, the “EC50 … IgG1, Kappa; HEK293-CD24” value worked out at 0.22 µg/mL; the “EC50 … IgG1, Kappa; MCF-7” value was 0.42 µg/mL; the “EC50 … IgG1, Kappa; NALM6” value is 0.43 µg/mL; the “EC50 … IgG1, Kappa; OVCAR3” value was found to be 8.44 µg/mL.
